Where two headings read alike, the source gives them in different places.

Series [1] has as its target T1, COMP (Homo sapiens, UniProt P49747). The series can be described thus: ELISA-style binding assay, COMP on coated collagen model peptides / collagen. Particulars: for effect of additive in interaction buffer on COMP binding to peptide 5: peptide 5 coated, COMP in pure TBS-T with the indicated chemical compound, compared to pure TBS (Fig. 3b); for Kd: peptide or collagen coated at 10 µg/ml (500 ng per well) on ELISA plate, pentameric COMP at indicated concentrations, 1 h, room temperature, TBS-T with 0.25% BSA, anti-COMP antibody, four-parameter logistic fit, triplicates, read-out: Apparent KD. How it is done:
(§1) For ELISA-style binding assays, rat tail collagen I (BD Bioscience) or the indicated collagen model peptides were diluted in TBS and coated at 10 µg/ml (500 ng per well) overnight at 4 °C. Further steps were performed at room temperature. After washing with TBS-T (TBS containing 0.05% (vol/vol) Tween-20), plates were blocked for 1 h with 1% (wt/vol) BSA in TBS. Strep-tagged COMP was added at indicated concentrations in TBS-T containing 0.25% (wt/vol) BSA) and incubated for 1 h. For assays with addition of cations pure TBS-T was used as interaction buffer. After washing away unbound protein with TBS-T, bound COMP was detected with a 1:3000 dilution of a specific polyclonal antibody against bovine COMP in interaction buffer. The antibody was raised in rabbit against bovine COMP purified from articular cartilage and characterised before in various studies[46]–[48]. The TSP-4 antibody was raised in guinea pigs and was previously described and characterised[30],[49]. The primary antibodies were detected with an HRP–conjugated swine anti-rabbit (DAKO, P0399) or rabbit anti-guinea pig antibody (Sigma, A5545). Bound secondary antibodies were visualised with tetramethylbenzidine as substrate, the reaction was either measured directly at 370 nm or stopped with 10% H2SO4 and measured at 450 nm. Data were analysed using Origin 2017 and fitted using a four-parameter logistic model.

Series [2] is described as follows: Dynamic light scattering of COMP solution with ZnCl. It counts as physicochemical. Conditions: 20 °C, cumulant radius over time. How it is done: Dynamic light scattering (DLS) was measured with a Wyatt DynaPro Nanostar using the disposable cuvettes (UVettes, Eppendorf). Data was acquired as a mean of 5 acquisitions, measured each for 5 s at a fixed temperature of 20 °C. The laser was set to auto-attenuation and the data analysed with the Dynamics software from Wyatt. Graph show the cumulant radius versus time for COMP with indicated ZnCl2 concentrations.

The nature of series [3]: CD spectroscopy thermal unfolding of collagen model peptides. It counts as physicochemical. Particulars: CD spectroscopy at 210 nm, heated at 1 °C/min, approx. 0.1 mg/ml, 1 mm cell, 4 parameter logistic fit. As to the method:
CD spectra of the col2p5 peptide and its derivatives were measured using a Jasco J–715 equipped with a peltier-element cuvette cooler. The samples were heated at 1 °C/min in a 1 mm path length quartz cell at approx. 0.1 mg/ml. Thermal unfolding was measured in a range between 20 °C and 70–90 °C and specific ellipticity recorded at 210 nm ever 1 °C. Additionally, every 5 °C far-UV spectra (200–250 nm) were recorded in triplicates. Data was fitted with a 4 parameter logistic fit using Origin 2017[45].

For a further series, the target named is TSP-4 (UniProt P35443). The series can be described thus: ELISA-style binding assay, TSP-4 on coated GVKGHR foldon construct. Particulars: GVKGHR foldon construct coated to ELISA plate, incubated with TSP4, anti-TSP4 antibody; fitted; triplicates. How it is done: as §1
For series [4], the target named is T1, COMP. Particulars: read-out: dissociation constant for COMP reported for collagen II; cited from earlier work. As to the method: To elucidate the binding site of COMP on the collagen II helix we incubated pentameric COMP at 200 nM concentration with our generated collagen II foldon library (Fig. 2). […] To confirm our finding and get proper binding affinities we coated the peptide 5 and incubated it with indicated concentration of COMP (Fig. 3a). The dissociation constant for COMP and pep5 (19.3 ± 12 nM) was slightly higher than reported for collagen II (1.72 ± 0.16 nM)[10]. ...

T1 sequence (P49747 21-757): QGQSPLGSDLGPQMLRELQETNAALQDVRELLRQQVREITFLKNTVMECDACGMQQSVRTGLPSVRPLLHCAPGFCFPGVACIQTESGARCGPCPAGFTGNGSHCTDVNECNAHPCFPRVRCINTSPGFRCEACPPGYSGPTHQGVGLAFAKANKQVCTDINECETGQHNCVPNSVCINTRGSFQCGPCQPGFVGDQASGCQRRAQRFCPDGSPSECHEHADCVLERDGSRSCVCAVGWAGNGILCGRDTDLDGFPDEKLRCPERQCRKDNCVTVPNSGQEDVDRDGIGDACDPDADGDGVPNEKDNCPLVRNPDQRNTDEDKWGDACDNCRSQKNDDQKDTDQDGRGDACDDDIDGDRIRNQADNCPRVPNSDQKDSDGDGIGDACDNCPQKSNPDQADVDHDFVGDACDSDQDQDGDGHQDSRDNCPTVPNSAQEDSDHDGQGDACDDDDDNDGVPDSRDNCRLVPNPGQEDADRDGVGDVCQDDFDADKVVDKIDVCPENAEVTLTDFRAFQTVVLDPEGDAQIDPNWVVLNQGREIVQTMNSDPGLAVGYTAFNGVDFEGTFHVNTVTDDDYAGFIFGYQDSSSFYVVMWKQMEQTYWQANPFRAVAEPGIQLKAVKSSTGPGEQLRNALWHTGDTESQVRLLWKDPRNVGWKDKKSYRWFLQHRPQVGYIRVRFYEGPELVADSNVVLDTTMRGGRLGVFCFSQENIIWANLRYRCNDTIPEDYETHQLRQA
TSP-4, sequence (P35443 27-961): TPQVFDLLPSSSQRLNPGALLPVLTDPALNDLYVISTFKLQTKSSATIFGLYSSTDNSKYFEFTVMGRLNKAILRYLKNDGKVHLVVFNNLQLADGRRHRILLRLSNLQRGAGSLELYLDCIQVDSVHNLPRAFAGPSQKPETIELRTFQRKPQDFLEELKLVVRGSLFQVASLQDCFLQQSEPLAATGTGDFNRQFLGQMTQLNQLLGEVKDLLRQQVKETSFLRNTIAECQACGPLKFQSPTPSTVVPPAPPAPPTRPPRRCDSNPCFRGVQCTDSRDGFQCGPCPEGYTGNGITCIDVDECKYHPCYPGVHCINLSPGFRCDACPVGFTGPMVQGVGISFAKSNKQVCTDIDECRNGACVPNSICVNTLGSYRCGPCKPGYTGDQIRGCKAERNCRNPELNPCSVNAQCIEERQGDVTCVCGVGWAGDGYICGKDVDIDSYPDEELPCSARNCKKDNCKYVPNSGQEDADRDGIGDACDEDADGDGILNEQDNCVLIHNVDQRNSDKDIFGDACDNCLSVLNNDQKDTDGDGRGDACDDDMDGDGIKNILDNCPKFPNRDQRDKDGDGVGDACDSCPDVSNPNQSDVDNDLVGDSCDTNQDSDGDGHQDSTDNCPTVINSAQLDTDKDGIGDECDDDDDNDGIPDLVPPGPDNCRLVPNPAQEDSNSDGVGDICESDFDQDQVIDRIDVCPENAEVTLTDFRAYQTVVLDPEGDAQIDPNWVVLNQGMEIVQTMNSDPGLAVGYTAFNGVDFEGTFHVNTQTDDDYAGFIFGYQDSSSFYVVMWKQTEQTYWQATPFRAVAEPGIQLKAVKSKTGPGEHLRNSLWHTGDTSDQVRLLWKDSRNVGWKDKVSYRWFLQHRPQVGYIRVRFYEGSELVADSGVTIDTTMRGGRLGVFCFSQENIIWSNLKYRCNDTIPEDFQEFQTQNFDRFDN

Consider `O=C(O)CN(CCN(CC(=O)O)CC(=O)O)CC(=O)O` [EDTA, reference compound], for which the “effect of additive in interaction buffer on COMP binding to peptide 5” value (from here on “effect of additive in interaction buffer”) on COMP [1] is given as “reduced the binding significantly”.

Take `c1cnc2c(c1)ccc1cccnc12` [phenanthroline, 1,10-phenanthroline, reference compound]: the “effect of additive in interaction buffer” value at COMP [1] is “does not reduce the binding compared to pure TBS”.

As to `[Cl-].[Cl-].[Zn+2]` [zinc, reference compound], the “effect of additive in interaction buffer” value on COMP [1] is “increased the affinity towards the peptides”.

With “COMP: recombinant pentameric cartilage oligomeric matrix protein, Strep-tagged, expressed in HEK293 (EBNA) cells”, the “hydrodynamic radius via DLS (aggregation)” value in series [2] (0.0 mM versus 0.1 mM ZnCl) was “could not detect any difference”; in series [2] (addition of 1 mM ZnCl), “starts to aggregate dramatically”.

With “GARGFPGTPGLPGVKGHRGYPGLDGAK [peptide 5, E. coli expressed collagen II library peptide in NStrep-(GPP)6-GUEST-(GPP)6-foldon context]”, the Kd on COMP [1] came out at 19.3 ± 12.4 nM. Further, the “Melting point (°C)” value in series [3] came out at 36.1 ± 0.5 °C.

As for “GEAGEPGERGLKGHRGFTGLQGLPGPP [peptide 52, library peptide with the C-terminal GLKGHR motif of collagen II, foldon context]”, at COMP [1], the Kd turned out to be 4.1 ± 0.8 nM.

For GLPGPKGHR, the Kd with COMP [1] came out at 2.26 ± 0.39 nM. The “Melting point (°C)” value in series [3] turned out to be 52.5 ± 0.6 °C.

GLPGVKGHP: the “Melting point (°C)” value in series [3] came to 47.9 ± 0.4 °C.

Regarding “GLPGVKGHR [unique region of pep5 in N-Strep-(GPP)6-GUEST-(GPP)6-foldon context]”, on COMP [1] (COMP at 400 nM, one-point measurements (Fig. 4a), or at indicated concentrations (Fig. 4b)), the “COMP binding to minimal motif peptides (ELISA signal)” value is recorded as “sufficient for binding”. Further, the “Melting point (°C)” value in series [3] was determined as 48.2 ± 0.6 °C.

With GLPGVPGHR, in series [3], the “Melting point (°C)” value was determined as 51.1 ± 0.3 °C.

Turning to GVKGHR, the Kd was 0.56 ± 0.05 nM at TSP-4 and 1.61 ± 0.29 nM with COMP [1]. The “Melting point (°C)” value in series [3] came out at 56.5 ± 0.6 °C.

Consider “collagen II: collagen II, literature value for COMP binding”, for which the Kd with COMP [4] was 1.72 ± 0.16 nM.

The record behind these values is paper PMC6249252, “COMP and TSP-4 interact specifically with the novel GXKGHR motif only found in fibrillar collagens” (Scientific Reports, 2018).
